The assay concerns the target T1, Aβ1-42 peptide (Aβ1-42 oligomers, Aβ-derived diffusible ligands) (UniProt P05067 672-713).
T1 construct: amyloid-beta peptide 1-42, the cut product of the amyloid precursor protein APP; numbers count on: the Aβ peptide; Used as oligomers: by SDS-PAGE and western blot mainly tetramers (~18 kDa) with a minor monomer band (~4.5 kDa); also called synthetic Aβ_(1-42); source: bought: AbcamBiochemicals (synthetic Aβ1-42), prepared as Aβ-derived diffusible ligands
Briefly: ELISA; NCAM2-ED (25 nM) or BSA (25 nM) held on MaxiSorp 96-well plates coated with antibodies against the extracellular domain of NCAM2; Aβ1-42 7.8-250 nM in 0.05% Tween 20 and 0.1% BSA; bound Aβ1-42 detected with antibodies against Aβ1-42 and HRP-conjugated secondary antibodies. The following applies: both partners purified. For orientation: In an ELISA, binding on a coated surface is turned into a signal by an enzyme label.

B1: recombinant extracellular domain of NCAM2 (NCAM2-ED) (domain or fragment, mouse, UniProt O35136 20-698, looked up)
chain: LLQVTISLSKVELSVGESKFFTCTAIGEPESIDWYNPQGEKIISTQRVMLQKEGVRSRLTIYNANIEDAGIYRCQATDAKGQTQEATVVLEIYQKLTFREVVSPQEFKQGEDAEVVCRVSSSPAPAVSWLYHNEEVTTIPDNRFAVLANNNLQILNINKSDEGIYRCEGRVEARGEIDFRDIIVIVNVPPAIMMPQKSFNATAERGEEMTLTCKASGSPDPTISWFRNGKLIEENEKYILKGSNTELTVRNIINKDGGSYVCKATNKAGEDQKQAFLQVFVQPHILQLKNETTSENGHVTLVCEAEGEPVPEITWKRAIDGVMFSEGDKSPDGRIEVKGQHGRSSLHIRDVKLSDSGRYDCEAASRIGGHQRSMHLDIEYAPKFVSNQTMYYSWEGNPINISCDVTANPPASIHWRREKLLLPAKNTTHLKTHSVGRKMILEIAPTSDNDFGRYNCTATNRIGTRFQEYILELADVPSSPHGVKIIELSQTTAKISFNKPESHGGVPIHHYQVDVKEVASETWKIVRSHGVQTMVVLSSLEPNTTYEIRVAAVNGKGQGDYSKIEIFQTLPVREPSPPSIHGQPSSGKSFKISITKQDDGGAPILEYIVKYRSKDKEDQWLEKKVQGNKDHIILEHLQWTMGYEVQITAANRLGYSEPTVYEFSMPPKPNIIKDTLFNG
notes: signal peptide in the construct; neural cell adhesion molecule 2 (NCAM2, OCAM), mouse, extracellular domain, amino acids 1-698, amplified from a mouse brain cDNA library; About 100 kDa on gels; also called recombinant soluble extracellular domains of NCAM2; source: CHO cells (CHO-K1), stably transfected, secreted into the culture medium; purified (40% ammonia sulphate, desalted, …)
Take B1: the binding result is “binds”.
